Test results published in patent publication US9168297B2, “Regulation of skin pigmentation by neuregulin-1 (NRG-1)” (The United States of America, as Represented by the …, priority 2010, dated 2015).

Tests used:
[1] = system: MelanoDerm 3-D reconstructed human skin; experiment: Pigmentation of 3-D reconstructed skin (MelanoDerm), L value and microscopy; type: cell-based; conditions: for ΔL (pigmentation, L value): day 9, vs vehicle
Experimental: Light, Medium, and Dark human epidermal equivalents (MelanoDerm®) were purchased from MatTek Corp. (Ashland, Mass.). MelanoDerms were grown at the air/liquid interface of the maintenance medium MEL-LLMM (MatTek Corp.), and the culture medium was renewed every 2 days. Where noted, MelanoDerms were treated for 9 days with 50 ng/ml NRG-1 (rhNRG-1-β1, R&D Systems, Minneapolis, Minn.) prepared in phosphate-buffered saline (PBS) with 0.1% bovine serum albumin (BSA) and MelanoDerm maintenance medium. The same concentrations of PBS and BSA were used for mock-treated controls.
For the studies where the MelanoDerms were treated with NRG-1 and/or various pan-ERBB inhibitors, Dark MelanoDerms were first incubated with a pan-ERBB inhibitor (0.5 μM Compound 39, EMD Chemicals, Gibbistown, N.J. or 2 μM CI-1033, Selleck Chemicals LLC, US) for 30 minutes or with vehicle (DMSO) only before treatment with 50 ng/ml NRG-1; identical amounts of DMSO (0.02%) were added to all samples. Treatment was renewed every 2 days in fresh medium and was continued for 9 days.
Three dimensional (3-D) reconstructed human skin models (termed MelanoDerms) were used to test the effects of NRG-1 on skin pigmentation. Three types of MelanoDerm, ‘light’ ([…]), ‘medium’ ([…]) and ‘dark’ ([…]), were used to compare the effects of NRG-1 on those three types of skin. In preliminary studies to optimize the concentration of NRG-1 (from 10 to 200 ng/ml were tested, FIG. 10), 50 ng/ml was chosen which was consistent with concentrations of NRG-1 used for other cell types by other groups. NRG-1 was added to the MelanoDerm media at 50 ng/ml and the medium was replenished every 2 days. On day 9, the MelanoDerms treated with NRG-1 were compared to controls treated only with vehicle. Pigmentation of the skin was assessed using the L value, higher L values indicating lighter colors. […] It should be noted that relatively small changes in ΔL can represent relatively large changes in visible skin color. For example, the mean L value of White/Caucasian skin is 67, that of Asians, Pacific-Islanders is 65, that of Hispanic/Latinos is 64, and that of American Indian/Alaska Native is 62. […] In the vehicle-treated control MelanoDerms, melanin pigment was more evenly distributed throughout the entire epidermis and no visible melanin accumulation was observed around melanocytes (FIG. 3B). […] Therefore, NRG-1 leads to visible increases in pigmentation in the MelanoDerms which was greater as the skin had more constitutive pigmentation.

[2] = system: ERBB4; experiment: ERBB4 protein level by western blotting in melanocytes; type: cell-based, human; conditions: HEM-LP and HEM-DP, NRG-1 50 ng/ml, 5 days
Experimental: (§1) FIGS. 7A and 7B are digital images illustrating expression of ERBBs after NRG-1 treatment. FIG. 7A) HEM-LP and HEM-DP melanocytes were treated with or without NRG-1 (50 ng/ml) for 5 days, and levels of ERBB2, ERBB3 or ERBB4 were detected by western blotting. Results shown are representative of three studies. FIG. 7B) Expression of ERBB2 was examined in HEM-LP and in HEM-DP melanocytes after 1 or 9 days or treatment with NRG-1 compared to vehicle-treated controls; the results are representative of two independent studies.
(§2) Fibroblast cultures in 100-mm dishes were solubilized in appropriate volumes of M-PER mammalian protein extraction reagent (Pierce Biotechnology, Rockford, Ill.) containing a Protease Inhibitor mixture (Roche, Mannheim, Germany) and phosphatase inhibitors. The protein concentration of each extract was measured using a BCA protein assay kit (Pierce, Rockford, Ill.). Cell extracts (20 μg) were separated on 8-16% gradient SDS polyacrylamide gels (Invitrogen, Carlsbad, Calif.), after which proteins were transferred to PVDF membranes (Invitrogen, Carlsbad, Calif.). […] Antigen-antibody complexes were detected using an ECL-plus Western blotting detection system (GE Healthcare). […]

[3] = system: ERBB3; experiment: ERBB3 protein level by western blotting in melanocytes; type: cell-based, human; conditions: NRG-1 50 ng/ml, 5 days
Experimental: as §1, §2

[4] = system: ERBB2; experiment: ERBB2 protein level by western blotting in melanocytes; type: cell-based, human
Experimental: as §1
FIGS. 8A and 8B are digital images illustrating the mechanism of ERBB2 abrogation after NRG-1 treatment. FIG. 8A) ERBB2 mRNA levels in HEM-LP and in HEM-DP melanocytes were detected by RT-PCR after treatment with or without NRG-1 (50 ng/ml) for 1 day. FIG. 8B) MG132 (120 nM) was added to the melanocyte culture medium to inhibit proteasomal degradation during treatment of HEM-LP and HEM-DP melanocytes with or without NRG-1 (50 ng/ml). Proteins were extracted for each sample, and ERBB2 levels were detected by western blotting. Results are representative of three studies.
Fibroblast cultures in 100-mm dishes were solubilized in appropriate volumes of M-PER mammalian protein extraction reagent (Pierce Biotechnology, Rockford, Ill.) containing a Protease Inhibitor mixture (Roche, Mannheim, Germany) and phosphatase inhibitors. The protein concentration of each extract was measured using a BCA protein assay kit (Pierce, Rockford, Ill.). Cell extracts (20 μg) were separated on 8-16% gradient SDS polyacrylamide gels (Invitrogen, Carlsbad, Calif.), after which proteins were transferred to PVDF membranes (Invitrogen, Carlsbad, Calif.). Membranes were blocked for 1 hour in PBS or Tris buffered saline (TBS) containing 0.1% Tween 20 and 5% (w/v) nonfat dry milk powder and were incubated overnight at 4° C. with the primary antibody in PBS containing 0.1% Tween 20 and 2.5% (w/v) nonfat dry milk powder or in 0.1% Tween-TBS with 5% BSA, depending on the antibody. The following primary antibodies were used: anti-human DKK-1 (0.2 μg/ml), anti-human DKK-3 (0.1 μg/ml), anti-human bFGF (0.1 μg/ml), anti-human SCF (0.1 μg/ml), anti-human mouse monoclonal ERBB3 (1 μg/ml) and anti-human mouse monoclonal ERBB4 (2 μg/ml) antibodies from R&D Systems, neuregulin-1α/β1/2 (C-20) (1:500) and GAPDH (FL-335) (1:10,000) antibodies from Santa Cruz Biotechnology, ERBB2 rabbit monoclonal (1:1000) and phospho-Akt (Ser473) (1:1000) antibodies from Cell Signaling Technology. Membranes were then incubated with an HRP-linked anti-rabbit antibody (GE Healthcare) at 1:10,000 dilution or with an anti-goat antibody (DAKO) at 1:2,000 dilution at room temperature for 1 hour. Antigen-antibody complexes were detected using an ECL-plus Western blotting detection system (GE Healthcare). […]

B1: NRG-1: commercially available recombinant human neuregulin-1 (rhNRG-1-β1, R&D Systems), SEQ ID NO: 11 (protein)
chain: TSHLVKCAEKEKTFCVNGGECFMVKDLSNPSRYLCKCPNEFTGDRCQNYVMASFYKHLGIEFMEAEELYQK
[1]; MelanoDerm, NRG-1
  Melanocyte growth in MelanoDerm skin model: did not increase melanocyte growth
[1]; MelanoDerms, NRG-1 50 ng/ml, vs vehicle-treated control
  Melanocyte morphology, bright field microscopy: more abundant cytoplasm with thicker dendrites
[1]; dark MelanoDerms, NRG-1 50 ng/ml
  ΔL (pigmentation, L value): −3
[1]; light MelanoDerms, NRG-1 50 ng/ml
  ΔL (pigmentation, L value): −1
[1]; medium MelanoDerms (Asian skin), NRG-1 50 ng/ml
  ΔL (pigmentation, L value): −2
[2]
  Levels of ERBB4 expression: did not change
[3]; HEM-DP
  ERBB3 expression level: not affected
[3]; HEM-LP
  ERBB3 expression level: no detectable change
[4]; HEM-LP and HEM-DP, NRG-1 50 ng/ml, 5 days
  Expression of ERBB2: almost completely undetectable
[4]; both types of melanocytes, NRG-1, 1 day
  Level of ERBB2: significantly decrease
[4]; both types of melanocytes, NRG-1, day 3, lasted until day 9
  ERBB2 expression: completely disappeared
